Experimental data from article PMC2133019 (The Journal of Cell Biology, 1998).
acyl = not defined here

Tests used:
[1] = target: clathrin/AP cages (Bos taurus, UniProt P49951); assay: NMR line-broadening with assembled clathrin/AP cages; type: binding, bovine; settings: 2.5 mM peptide
[2] = target: assembled clathrin/AP cages (bovine (purified from bovine brain)) (UniProt P49951); assay: NMR line-broadening
[3] = 20 mg/ml cages, line-width with cages minus without

assembled clathrin/AP cages (bovine (purified from bovine brain)), sequence (P49951 whole entry, looked up): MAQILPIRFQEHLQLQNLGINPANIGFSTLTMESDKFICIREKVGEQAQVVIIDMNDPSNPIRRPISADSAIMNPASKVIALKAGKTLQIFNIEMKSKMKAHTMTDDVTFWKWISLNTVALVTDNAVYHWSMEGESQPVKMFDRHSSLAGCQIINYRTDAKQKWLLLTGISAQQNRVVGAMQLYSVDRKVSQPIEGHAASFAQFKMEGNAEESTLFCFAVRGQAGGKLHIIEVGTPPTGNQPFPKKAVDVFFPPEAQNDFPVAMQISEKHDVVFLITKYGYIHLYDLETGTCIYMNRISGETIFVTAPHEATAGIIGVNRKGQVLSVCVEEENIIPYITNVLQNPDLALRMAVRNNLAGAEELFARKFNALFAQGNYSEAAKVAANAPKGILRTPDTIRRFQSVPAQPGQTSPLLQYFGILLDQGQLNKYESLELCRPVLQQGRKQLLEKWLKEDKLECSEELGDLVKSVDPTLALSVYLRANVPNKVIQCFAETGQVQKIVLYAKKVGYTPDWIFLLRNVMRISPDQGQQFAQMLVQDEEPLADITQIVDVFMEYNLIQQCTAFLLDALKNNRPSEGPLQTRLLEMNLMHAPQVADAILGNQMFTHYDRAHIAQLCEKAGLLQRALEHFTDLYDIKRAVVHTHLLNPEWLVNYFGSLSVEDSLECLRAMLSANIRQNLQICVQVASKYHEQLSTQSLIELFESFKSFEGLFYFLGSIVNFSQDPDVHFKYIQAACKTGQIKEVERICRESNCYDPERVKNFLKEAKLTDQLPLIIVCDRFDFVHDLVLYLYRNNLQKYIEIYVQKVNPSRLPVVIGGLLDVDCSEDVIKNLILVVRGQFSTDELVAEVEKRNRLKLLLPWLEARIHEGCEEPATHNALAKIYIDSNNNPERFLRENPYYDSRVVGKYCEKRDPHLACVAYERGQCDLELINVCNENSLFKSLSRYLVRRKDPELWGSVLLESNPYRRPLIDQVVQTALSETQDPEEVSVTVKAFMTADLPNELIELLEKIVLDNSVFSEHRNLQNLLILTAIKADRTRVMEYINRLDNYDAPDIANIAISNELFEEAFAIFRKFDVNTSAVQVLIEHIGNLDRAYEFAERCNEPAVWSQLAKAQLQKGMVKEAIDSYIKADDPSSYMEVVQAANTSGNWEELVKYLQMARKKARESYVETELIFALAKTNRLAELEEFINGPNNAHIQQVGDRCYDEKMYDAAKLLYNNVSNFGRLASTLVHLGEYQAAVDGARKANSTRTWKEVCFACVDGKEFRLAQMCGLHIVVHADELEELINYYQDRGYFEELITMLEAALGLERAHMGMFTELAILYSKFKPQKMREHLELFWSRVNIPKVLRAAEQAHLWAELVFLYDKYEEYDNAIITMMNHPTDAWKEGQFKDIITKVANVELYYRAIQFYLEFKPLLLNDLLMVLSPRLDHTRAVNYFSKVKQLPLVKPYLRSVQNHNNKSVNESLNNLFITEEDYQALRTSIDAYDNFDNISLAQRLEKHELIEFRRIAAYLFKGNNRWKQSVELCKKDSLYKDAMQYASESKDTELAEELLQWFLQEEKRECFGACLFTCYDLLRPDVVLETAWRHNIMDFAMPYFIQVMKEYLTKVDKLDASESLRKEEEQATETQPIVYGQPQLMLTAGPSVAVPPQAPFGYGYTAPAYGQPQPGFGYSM
clathrin/AP cages, sequence (P49951 whole entry): as the sequence (P49951 whole entry, looked up) above
clathrin/AP cages, sequence (P04973 whole entry partner): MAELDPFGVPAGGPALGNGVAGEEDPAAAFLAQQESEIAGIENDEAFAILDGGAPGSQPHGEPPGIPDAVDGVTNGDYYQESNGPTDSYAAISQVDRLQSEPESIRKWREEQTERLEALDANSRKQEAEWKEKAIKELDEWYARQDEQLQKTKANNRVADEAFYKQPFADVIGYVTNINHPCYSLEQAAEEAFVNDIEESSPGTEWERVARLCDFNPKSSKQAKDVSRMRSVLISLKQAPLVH
clathrin/AP cages, sequence (P04975 whole entry partner): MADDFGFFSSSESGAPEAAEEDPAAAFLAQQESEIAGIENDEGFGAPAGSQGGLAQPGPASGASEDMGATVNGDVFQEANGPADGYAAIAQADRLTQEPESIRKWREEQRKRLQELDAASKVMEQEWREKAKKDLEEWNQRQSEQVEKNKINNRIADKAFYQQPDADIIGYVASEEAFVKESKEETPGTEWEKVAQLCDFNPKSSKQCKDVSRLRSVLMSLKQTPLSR

line-broadening, Phe εH [2]	line-broadening, Thr9 γH [2]	line-broadening, Thr10 γH [2]	line-broadening, Tyr εH [2]	line-broadening, Val γH1 [2]	line-broadening, Val γH2 [2]	Molecule	line-broadening Phe εH [1, 3]	line-broadening Thr10 γH [1, 3]	line-broadening Tyr εH [1, 3]	line-broadening Val γH1 [1, 3]	line-broadening Val γH2 [1, 3]	cage-induced line-broadening (in words) ([1]; 20 mg/ml clathrin/AP cages, pH 6.0)
						FDNPVYQKTT (acyl-FDNPVYQKTT-OH; reading uncertain; also: acylated N-terminus, acyl group not given here)	3.60 Hz	2.95 Hz	3.45 Hz	5.20 Hz	3.82 Hz	pronounced increase in the line widths
3.6 Hz	3.18 Hz	2.95 Hz	3.45 Hz	5.2 Hz	3.82 Hz	acyl-FDNPVYQKTT-OH (reading uncertain; also: acylated NH2 terminus) [wild-type LDL receptor internalization motif decapeptide …]						
